Experimental data as given in patent US11814435B2, “Therapeutic antibodies and their uses” (PFIZER INC., priority 2015, dated 2023).
Residue numbers refer to the chain shown, from its start.

T1: hBCMA (human BCMA) (Homo sapiens, UniProt Q02223)
T1 sequence (Q02223 1-184): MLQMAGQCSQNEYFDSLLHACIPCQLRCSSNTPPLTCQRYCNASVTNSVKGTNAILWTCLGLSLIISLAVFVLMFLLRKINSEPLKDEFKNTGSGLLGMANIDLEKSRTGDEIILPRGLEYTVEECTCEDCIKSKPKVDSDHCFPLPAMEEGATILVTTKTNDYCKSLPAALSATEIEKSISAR

B1: COMBO_Rd4_0.6 nM_C23: anti-BCMA antibody (antibody, V domains shown)
VH: EVQLLESGGGLVQPGGSLRLSCAASGFTFSSYPMSWVRQAPGKGLEWVSALFGSGGSTYYADSVKGRFTISRDNSKNTLYLQMNSLRAEDTAVYYCARYWPMDSWGQGTLVTVSS
VL: EIVLTQSPGTLSLSPGERATLSCRPRQSVSSSYLAWYQQKPGQAPRLLMYDASIRATGIPDRFSGSGSGTDFTLTISRLEPEDFAVYYCQQYQDWPLTFGQGTKVEIK
B2: COMBO_Rd4_0.6 nM_C14: anti-BCMA antibody (antibody, V domains shown)
VH: B1 VH with L51I, F52G, T58L, Y59P, S104I
VL: B1 VL with P25A, R26S, S31A, S32L, Q93Y, D94G
B3: COMBO_Rd4_0.6 nM_C30: anti-BCMA antibody (antibody, V domains shown)
VH: B1 VH with L51I, F52G
VL: B1 VL with P25A, R26S, S31Y, S32M, M49I, Q93K, D94S
B4: COMBO_Rd4_6 nM_C12: anti-BCMA antibody (antibody, V domains shown)
VH: EVQLLESGGGLVQPGGSLRLSCAASGFTFSSYPMSWVRQAPGKGLEWVSAALGSGGSTYYADSVKGRFTISRDNSKNTLYLQMNSLRAEDTAVYYCARYWPMDSWGQGTLVTVS
VL: B1 VL with P25A, R26S, S31A, Q93M, D94S
B5: COMBO_Rd4_6 nM_C02: anti-BCMA antibody (antibody, V domains shown)
VH: B1 VH with P33A, S35N, L51I, F52S, G53D, S57F, T58V
VL: B1 VL with P25A, R26S, Q93E, D94F
B6: COMBO_Rd4_6 nM_C07: anti-BCMA antibody (antibody, V domains shown)
VH: B1 VH with L51I, F52G, T58L, Y59P, D103A, S104D
VL: B1 VL with P25A, R26S, S28P, V29I, D94G
B7: COMBO_Rd4_0.6 nM_C09: anti-BCMA antibody (antibody, V domains shown)
VH: B1 VH with L51I, F52G, T58L, Y59P, S104I
VL: B1 VL with P25A, R26S, S32T, D94E
B8: P5A2_VHVL: anti-BCMA antibody (antibody, V domains shown)
VH: B1 VH with P33A, S35N, L51I, F52S, G53D, S104I
VL: B1 VL with P25A, R26S, Q93G, D94S
B9: COMBO_Rd4_0.6 nM_C05: anti-BCMA antibody (antibody, V domains shown)
VH: B1 VH with P33A, S35N, L51I, F52G, D103S, S104L
VL: B1 VL with P25A, R26S, S32T, Q93M, D94S

test system: Cyno BCMA; assay: Kinetics and affinity of cyno BCMA/human IgG interactions by SPR (Bio-Rad Proteon XPR36); type: binding, cynomolgus; conditions: 37° C.

Molecule	ka Cyno	kd Cyno
B1	2.81e+06 M⁻¹ s⁻¹	0.000531 s⁻¹
B2	3.48e+06 M⁻¹ s⁻¹	0.000645 s⁻¹
B3	1.68e+06 M⁻¹ s⁻¹	0.000808 s⁻¹
B4	3.29e+06 M⁻¹ s⁻¹	0.000486 s⁻¹
B5	795000 M⁻¹ s⁻¹	0.00136 s⁻¹
B6	3.94e+06 M⁻¹ s⁻¹	0.000934 s⁻¹
B7	3.77e+06 M⁻¹ s⁻¹	0.000346 s⁻¹
B8	1.61e+06 M⁻¹ s⁻¹	0.0164 s⁻¹
B9	1.94e+06 M⁻¹ s⁻¹	0.00172 s⁻¹

target: T1, hBCMA (human BCMA); assay: Kinetics and affinity of hBCMA/human IgG interactions by SPR (Bio-Rad Proteon XPR36); type: binding; conditions: human BCMA, 37° C.
Method in brief: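 Anti-BCMA IgGs were amine-coupled to a GLC chip at 25° C. BCMA analyte was run by kinetic titration at 0.08, 0.4, 2, 10 and 50 nM, with 2-minute associations and 2-hour dissociation, at 37° C. or 25° C. in HBS-T+ (pH 7.4) plus 1 mg/mL BSA. Double-referenced sensorgrams were fit to 1:1 Langmuir with mass transport.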

Molecule	ka Human	kd Human
B1	7.39e+06 M⁻¹ s⁻¹	0.00021 s⁻¹
B2	8.66e+06 M⁻¹ s⁻¹	0.000328 s⁻¹
B3	4.35e+06 M⁻¹ s⁻¹	0.000282 s⁻¹
B4	1.38e+07 M⁻¹ s⁻¹	0.00027 s⁻¹
B5	1.05e+06 M⁻¹ s⁻¹	0.000443 s⁻¹
B6	1.05e+07 M⁻¹ s⁻¹	0.000371 s⁻¹
B7	1.04e+07 M⁻¹ s⁻¹	0.000319 s⁻¹
B8	6.96e+06 M⁻¹ s⁻¹	0.0387 s⁻¹
B9	4.32e+06 M⁻¹ s⁻¹	0.000497 s⁻¹
